Assay results published in patent US20170022269A1.

Experiments:
Aβ(1-40) monomer (human) = experiment: dot blot densitometry, antibody 0.2 µg/ml; column Aβ(1-40) monomer, 0.1% NaOH
Aβ(1-42) fibrils (human) [1] = molecular target: Aβ(1-42) fibrils (human) (UniProt P05067); experiment: dot blot densitometry, antibody 0.2 µg/ml; column Aβ(1-42) fibril
Aβ(1-42) fibrils (human) [2] = molecular target: Aβ(1-42) fibrils (human) (UniProt P05067); experiment: co-pelleting with Aβ(1-42) fibrils, SDS-PAGE, optical density of the heavy chain in pellet / (pellet + supernatant)

Chain of Aβ(1-42) fibrils (human) (P05067 672-713): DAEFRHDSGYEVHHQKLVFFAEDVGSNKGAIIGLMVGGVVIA
Chain of Aβ(1-40) monomer (human) (peptide, as listed by the source): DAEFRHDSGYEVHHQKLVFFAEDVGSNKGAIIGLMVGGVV

B1: monoclonal antibody 3B10 (antibody, part only; not given: light chain, V domains shown, part only)
VH: QVQLQQSGPELVKPGASVKMSCKASGYTFTDYVIHWVKQKPGQGLEWIGYINPYNDGTQYNEKFKGKATLTSDKSSSTVYMELSSLTSEDSTVYYCTVEGGTWDGYFDVWGTGTTVTVSS
Aβ(1-40) monomer (human)
  relation between recognition of Aβ(20-42) globulomer and the respective Aβ form: > 10000
Aβ(1-42) fibrils (human) [1]
  relation between recognition of Aβ(20-42) globulomer and the respective Aβ form: > 10000
Aβ(1-42) fibrils (human) [2]
  antibody bound to fibrils [%]: 5%
